Each block holds one molecule with its values, some of them ahead of it.
Key:
[1] = system: HuH-7 xenograft; test: Example 2 antitumor effect, HuH-7 xenograft mouse model (hGC33 and Sorafenib); assay type: in vivo; settings: hGC33 5 mg/kg i.v. weekly x3 alone or Sorafenib 80 mg/kg oral 5 times per week x3 alone
Method: (§1) HepG2 cells or HuH-7 cells (5×10^5 cells) dispersed in 50% Matrigel (Becton Dickinson) were subcutaneously implanted. When the tumor volume reached 250 mm^3, the mice were divided into groups and administration commenced.
(§2) The asterisks in the figures indicate that P<0.05, based on the Dunnett's test. […] The open circles indicate the change in body weight in the group given the vehicle. […] The open squares indicate the change in body weight in the group given only Sorafenib in a dose of 80 mg/kg. […]

[2] = Example 5 body weight loss in HepG2 xenograft mouse model; assay type: in vivo; settings: Sorafenib 80 mg/kg oral
Text: Sorafenib was synthesized according to Organic Process Research & Development (2002) 6, 777-781.
Th data is expressed by the time course of the body weight of the mice (mean±SD).

[3] = Example 2 body weight loss in HepG2 xenograft mouse model; assay type: in vivo; settings: Sorafenib 80 mg/kg oral, relative to tumor-associated weight loss of the model
Method: as §1, §2

[4] = system: liver cancer; settings: liver cancer patients, phase II; cited from earlier work
[5] = thermal denaturation midpoint temperature (Tm) by DSC, Reference Example 3; assay type: physicochemical; settings: Fab domain peak, sodium acetate buffer pH 6.0 with 150 mmol/L NaCl, about 1 K/minute
Method: The thermal denaturation midpoint temperature (Tm) was determined by the top of the denaturation peak in the thermogram (Cp versus T) obtained after heating the test sample solution at a constant programmed heating rate. The Tm value of the humanized H0L0 antibody was measured using a sample solution for DSC measurement prepared as described in the following. The antibody solution (corresponding to 50 to 100 μg) filled in a dialysis membrane was first dialyzed for 24 hours against a dialysis external solution of 20 mol/L sodium acetate buffer solution (pH 6.0) containing 150 mmol/L sodium chloride. Subsequently, the sample solution was adjusted its antibody concentration of 50 to 100 μg/mL with dialysis external solution and used as the sample solution for DSC measurement.
A suitable DSC instrument, for example, DSC-II (Calorimetry Sciences Corporation), is used for this experiment. The sample solution prepared as described above and the reference solution (dialysis external solution) were thoroughly degassed, and each of these test specimens was placed in a calorimeter cell and was thermally equilibrated at 40° C. A DSC scan was then run from 40° C. to 100° C. at a scan rate of approximately 1 K/minute. The results of this measurement are given as the top of the denaturation peak as a function of temperature.

[6] = system: liver cancer cells; settings: against liver cancer cells; see WO 2006/006693; cited from earlier work
[7] = biological target: T1, soluble GPC3 core polypeptide (Homo sapiens (Human), UniProt P51654 25-563); test: competitive ELISA, soluble GPC3 core polypeptide on plate, competitor biotinylated H0L0
T1 construct: It was immobilised on the ELISA plate at 1 ug/mL; also called glypican 3; antigen glypican 3
Method: 100 μL of the soluble GPC3 core polypeptide (SEQ ID NO: 36) at 1 μg/mL was added to each well of a 96-well plate. The soluble GPC3 core polypeptide was immobilized on the plate by allowing the plate to stand overnight at 4° C. The soluble GPC3 core polypeptide immobilized on the plate was washed 3 times with a washing buffer using a Skan WASHER400 (Molecular Devices); and blocked with 200 μL blocking buffer at 4° C. for at least 30 min. The blocked plate on which soluble GPC3 core polypeptide was immobilized was then washed 3 times with washing buffer using the Skan WASHER400. […] The plate was left stand for 1 hour at room temperature, then washed 5 times with washing buffer using the Skan WASHER400 (Molecular Devices). 100 μL goat anti-streptavidin alkaline phosphatase (ZYMED), diluted 20,000× with substrate buffer, was added to each well, and the resulting plate was left stand for 1 hour at room temperature, and then washed 5 times with washing buffer using the Skan WASHER400. Phosphatase Substrate (Sigma) was prepared at 1 mg/mL in the substrate buffer, added at 100 μL, per well for 1 hour. The absorbance at 405 nm of the reaction solution in each well was measured using a Benchmark Plus (BIO-RAD), with the control absorbance at 655 nm.

[8] = pI value by electrophoresis with PhastGel IEF 4-6.5, Reference Example 4; assay type: physicochemical; settings: for pI value: PhastGel IEF 4-6.5
Method: The pI values of the Hd1.8Ld1.6 antibody and pH7pL16 antibody were measured by electrophoresis with PhastGel IEF 4-6.5 (GE Healthcase) using the method described in Reference Example 3 or similar method.

[9] = biological target: soluble GPC3 core polypeptide (Homo sapiens, UniProt P51654, S495A/S509A); test: competitive ELISA of binding activity against biotinylated humanized H0L0 antibody; settings: for antigen binding activity compared with humanized H0L0 antibody: Reference Example 3
Method: The humanized H0L0 antibody and its point mutation-modified antibodies purified in (1) was evaluated by competitive ELISA. 100 μL of the soluble GPC3 core polypeptide (SEQ ID NO: 36) at 1 μg/mL was added to each well of a 96-well plate. The soluble GPC3 core polypeptide was immobilized on the plate by allowing the plate to stand overnight at 4° C. The soluble GPC3 core polypeptide immobilized on the plate was washed 3 times with a washing buffer using a Skan WASHER400 (Molecular Devices); and blocked with 200 μL blocking buffer at 4° C. for at least 30 min. The blocked plate on which soluble GPC3 core polypeptide was immobilized was then washed 3 times with washing buffer using the Skan WASHER400. Subsequently, each well of the plate received 200 μL of a mixture containing 100 μL of biotinylated humanized H0L0 antibody (final concentration=0.3 μg/mL) and 100 μL of the humanized H0L0 antibody or its point mutation-modified antibody (at various concentrations). The humanized H0L0 antibody was biotinylated using a Biotin Labeling Kit (Roche) according to the instructions provided with the kit. The plate was left stand for 1 hour at room temperature, then washed 5 times with washing buffer using the Skan WASHER400 (Molecular Devices). 100 μL goat anti-streptavidin alkaline phosphatase (ZYMED), diluted 20,000× with substrate buffer, was added to each well, and the resulting plate was left stand for 1 hour at room temperature, and then washed 5 times with washing buffer using the Skan WASHER400. Phosphatase Substrate (Sigma) was prepared at 1 mg/mL in the substrate buffer, added at 100 μL, per well for 1 hour. The absorbance at 405 nm of the reaction solution in each well was measured using a Benchmark Plus (BIO-RAD), with the control absorbance at 655 nm.
The binding activity to the antigen glypican 3 of each point mutation pI modified antibody was measured using the method described in Reference Example 3.

[10] = Tm of Fabs by VP-DSC, Reference Example 4; assay type: physicochemical; settings: PBS, 20° C. to 115° C., about 4K/min
Method: The Tm values of Fabs obtained from Hd1.8Ld1.6 antibody and pH7pL16 antibody were measured with VP-DSC (Micro Cal) using the method similar to Reference Example 3. In this experiment, PBS was used as a dialysis solution, and the antibody concentration in the test solution for DSC measurement was adjusted to 25-100 μg/ml. DSC scanning was set from 20° C. to 115° C. at the scanning rate of about 4K/min, with the reference solution (dialysis solution) and DSC measurement test solution. The thermal denaturation midpoint temperature of the Fabs of the Hd1.8Ld1.6 antibody and pH7pL16 antibody was 77.5 and 74.7° C., respectively.

[11] = pI value by isoelectric electrophoresis, Reference Example 3; assay type: physicochemical
Method: The pI value of each antibody was calculated based on the analysis by isoelectric electrophoresis. Electrophoresis was carried out as described in the following. Using a Phast-System Cassette (Amersham Bioscience), Phast-Gel Dry IEF (Amersham Bioscience) gel was swollen for about 60 minutes with a swelling solution with the composition given below.
• 1.5 mL 10% glycerol • 100 μL Pharmalyte 8-10.5 for IEF (Amersham Bioscience)
• 1.5 mL purified water • 20 μL Pharmalyte 8-10.5 for IEF (Amersham Bioscience) • 80 μL Pharmalyte 5-8 for IEF (Amersham Bioscience)
Approximately 0.5 μg antibody was loaded on the swollen gel and isoelectric electrophoresis was run using the PhastSystem (Amersham Bioscience) controlled by the program described below. The sample was added to the gel at Step 2 of this program. A Calibration Kit for pI (Amersham Bioscience) was used for the pI markers.
After electrophoresis, the gel was fixed with 20% TCA and silver staining was then carried out using a Silver Staining Kit, Protein (Amersham Bioscience) according to the instructions provided with the kit. After staining, the isoelectric point of each antibody (test sample) was calculated based on the already known isoelectric points of the pI markers.

Sequence of soluble GPC3 core polypeptide (Homo sapiens, UniProt P51654, S495A/S509A) (P51654 with tags, fused parts or gaps S495A/S509A): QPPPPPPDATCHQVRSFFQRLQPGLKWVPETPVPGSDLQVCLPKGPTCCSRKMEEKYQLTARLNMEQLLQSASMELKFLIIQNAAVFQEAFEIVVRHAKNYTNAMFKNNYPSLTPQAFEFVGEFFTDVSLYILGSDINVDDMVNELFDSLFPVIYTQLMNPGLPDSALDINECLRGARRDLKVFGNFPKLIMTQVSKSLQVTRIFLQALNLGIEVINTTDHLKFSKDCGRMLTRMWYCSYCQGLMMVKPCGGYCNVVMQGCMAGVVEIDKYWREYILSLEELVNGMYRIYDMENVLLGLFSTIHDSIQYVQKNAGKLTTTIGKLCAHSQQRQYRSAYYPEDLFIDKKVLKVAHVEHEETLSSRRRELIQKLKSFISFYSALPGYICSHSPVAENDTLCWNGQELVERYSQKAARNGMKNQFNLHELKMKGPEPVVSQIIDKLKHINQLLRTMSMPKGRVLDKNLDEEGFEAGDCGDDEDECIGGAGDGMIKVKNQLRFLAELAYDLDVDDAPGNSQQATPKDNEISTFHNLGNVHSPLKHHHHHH
T1 sequence (P51654 other isoform, or with tags, fused parts or gaps limits assumed): as the sequence (P51654 with tags, fused parts or gaps S495A/S509A) above

Molecule: CNC(=O)c1cc(Oc2ccc(NC(=O)Nc3ccc(Cl)c(C(F)(F)F)c3)cc2)ccn1 [Sorafenib, 4-[4-[[4-chloro-3-(trifluoromethyl)phenyl]carbamoylamino]phenoxy]-N-methylpyridine-2-carboxamide]
tumor growth, single agent [1]: suppressed
weight loss with Sorafenib alone [2]: enhanced
weight loss with Sorafenib alone [3]: further enhanced

Molecule: CS(=O)(=O)CCNCc1ccc(-c2ccc3ncnc(Nc4ccc(OCc5cccc(F)c5)c(Cl)c4)c3c2)o1 [lapatinib]
rate of response [4]: 0%
time to progression [4]: 1.8 months

Molecule: Synagis: example of existing antibodies
Tm value (thermal denaturation midpoint temperature) [5]: 85.4 °C

B1: GC33: Mouse anti-human glypican 3 monoclonal antibody, clone GC33, WO 2006/006693; variable regions SEQ ID NOs: 1 and 2 (antibody, V domains shown)
VH: QVQLQQSGAELVRPGASVKLSCKASGYTFTDYEMHWVKQTPVHGLKWIGALDPKTGDTAYSQKFKGKATLTADKSSSTAYMELRSLTSEDSAVYYCTRFYSYTYWGQGTLVTVSA
VL: DVVMTQTPLSLPVSLGDQASISCRSSQSLVHSNGNTYLHWYLQKPGQSPKLLIYKVSNRFSGVPDRFSGSGSGTDFTLKISRVEAEDLGVYFCSQNTHVPPTFGSGTKLEIK
modifications: Modified antibody
ADCC and CDC activities [6]: greater

binding result [7]: binds
B2: H15L4 antibody (antibody, V domains shown)
VH: QVQLVQSGAEVKKPGASVKVSCKASGYTFTDYEMHWIRQPPGQGLEWIGAIDPKTGDTAYSQKFKGRVTLTADKSTSTAYMELSSLTSEDTAVYYCTRFYSYTYWGQGTLVTVSS
VL: DIVMTQSPLSLPVTPGEPASISCRSSQSLVHSNRNTYLHWYQQKPGQAPRLLIYKVSNRFSGVPDRFSGSGSGTDFTLKISRVEAEDVGVYYCSQNTHVPPTFGQGTKLEIK

antigen binding activity compared with humanized H0L0 antibody [9]: about the same
B3: Hd1.8Ld1.6: antibody composed of Hspd1.8 (SEQ ID NO: 27) and Lspd1.6 (SEQ ID NO: 29), lowered pI (antibody, V domains shown)
VH: QVQLVQSGAEVKKPGASVTVSCKASGYTFTDYEMHWIRQPPGEGLEWIGAIDPKTGDTAYSQSFQDRVTLTADKSTSTAYMELSSLTSEDTAVYYCTRFYSYTYWGQGTLVTVSS
VL: DIVMTQSPLSLPVTPGEPASISCRASESLVHSNRNTYLHWYQQKPGQAPRLLIYKVSNRFSGVPDRFSGSGSGTDFTLTISSLQAEDVGVYYCSQNTHVPPTFGQGTKLEIK
modifications: Modified antibody
pI value [8]: 7.47
thermal denaturation midpoint temperature of the Fabs [10]: 77.5 °C
reduction of pI relative to humanized H0L0 antibody [11]: 1.5
pI value ([11]; isoelectric electrophoresis, Phast-Gel Dry IEF): 7.4

B4: hGC33: humanized anti-glypican 3 antibody, H chain variable region SEQ ID NO: 3, L chain SEQ ID NO: 4 (antibody, V domains shown)
VH: QVQLVQSGAEVKKPGASVKVSCKASGYTFTDYEMHWVRQAPGQGLEWMGALDPKTGDTAYSQKFKGRVTLTADKSTSTAYMELSSLTSEDTAVYYCTRFYSYTYWGQGTLVTVSS
VL: DVVMTQSPLSLPVTPGEPASISCRSSQSLVHSNGNTYLHWYLQKPGQSPQLLIYKVSNRFSGVPDRFSGSGSGTDFTLKISRVEAEDVGVYYCSQNTHVPPTFGQGTKLEIK
modifications: Modified antibody
tumor growth, single agent [1]: suppressed

antigen binding activity compared with humanized H0L0 antibody [9]: about the same
B5: H15L4: antibody combining heavy chain H15 (SEQ ID NO: 34) and light chain L4 (SEQ ID NO: 35) (antibody, V domains shown)
VH: QVQLVQSGAEVKKPGASVKVSCKASGYTFTDYEMHWIRQPPGQGLEWIGAIDPKTGDTAYSQKFKGRVTLTADKSTSTAYMELSSLTSEDTAVYYCTRFYSYTYWGQGTLVTVSS
VL: DIVMTQSPLSLPVTPGEPASISCRSSQSLVHSNRNTYLHWYQQKPGQAPRLLIYKVSNRFSGVPDRFSGSGSGTDFTLKISRVEAEDVGVYYCSQNTHVPPTFGQGTKLEIK
modifications: Modified antibody

binding activity to glypican 3 compared with humanized H0L0 antibody ([9]; Reference Example 4): comparative
B6: pH7pL16: pI modified humanized anti-glypican 3 antibody, pH7 (SEQ ID NO:31) and pL16 (SEQ ID NO:33) (antibody, V domains shown)
VH: QVQLVQSGAEVKKPGASVTVSCKASGYTFTDYEMHWIRQPPGEGLEWIGAIDPKTGDTAYSESFQDRVTLTADKSTSTAYMELSSLTSEDTAVYYCTRFYSYTYWGQGTLVTVSS
VL: DIVMTQSPLSLPVTPGEPASISCQASESLVHSNRNTYLHWYLQKPGQSPQLLIYKVSNRFSGVPDRFSGSGSGTDFTLKISRVEAEDVGVYYCSQNTHVPPTFGQGTKVEIE
modifications: Modified antibody
pI lower than that of Hd1.8Ld1.6 antibody by [8]: 0.95
pI value [8]: 6.52
thermal denaturation midpoint temperature of the Fabs [10]: 74.7 °C

binding result [7]: binds
B7: Hspd1.8Lspd1.6 (Hd1.8Ld1.6) antibody (antibody, V domains shown)
VH: QVQLVQSGAEVKKPGASVTVSCKASGYTFTDYEMHWIRQPPGEGLEWIGAIDPKTGDTAYSQSFQDRVTLTADKSTSTAYMELSSLTSEDTAVYYCTRFYSYTYWGQGTLVTVSS
VL: DIVMTQSPLSLPVTPGEPASISCRASESLVHSNRNTYLHWYQQKPGQAPRLLIYKVSNRFSGVPDRFSGSGSGTDFTLTISSLQAEDVGVYYCSQNTHVPPTFGQGTKLEIK
